# B1: HDV Ribozyme (parent)
# chain: GGCCGGCAUGGUCCCAGCCUCCUCGCUGGCGCCGGCUGGGCAACAUUCCGAGGGGACCGUCCCCUCGGUAAUGGCGAAUGGGACCCA
# Variants of: B1
# Assay: self-cleavage, relative activity (ratio to wild type); higher = more cleavage; co-transcriptional
row,Variant,self-cleavage
1,A16U A78G,0.332
2,A16U A83G,0.567
3,A16U A83U,0.584
4,A16U A87C,1.04
5,A16U A87G,0.968
6,A16U C18A,0.107
7,A16U C19A,0.285
8,A16U C21U,0.122
9,A16U C22G,0.161
10,A16U C22U,0.612
11,A16U C24U,0.314
12,A16U C26A,1.05
13,A16U C30G,0.119
14,A16U C30U,0.68
15,A16U C32A,0.177
16,A16U C32U,0.727
17,A16U C44A,0.598
18,A16U C44U,0.6
19,A16U C48A,1.07
20,A16U C48U,1.07
21,A16U C57U,0.831
22,A16U C58G,0.807
23,A16U C63A,1.08
24,A16U C63U,1.14

row,Variant,self-cleavage
1,A16U C64U,0.866
2,A16U C66U,1.05
3,A16U C75G,0.119
4,A16U C86G,0.853
5,A16U G25A,0.0707
6,A16U G25U,0.166
7,A16U G28A,0.0475
8,A16U G34A,0.166
9,A16U G34C,0.369
10,A16U G35C,0.128
11,A16U G39A,0.32
12,A16U G39U,0.403
13,A16U G40A,0.928
14,A16U G52C,0.696
15,A16U G53C,1.01
16,A16U G55A,0.784
17,A16U G55U,1.09
18,A16U G59A,0.967
19,A16U G67A,0.988
20,A16U G68U,1.18
21,A16U G74U,0.394
22,A16U G76A,0.939
23,A16U G76C,0.973
24,A16U G80C,0.145

row,Variant,self-cleavage
1,A16U G80U,0.41
2,A16U U20C,0.277
3,A16U U23C,0.831
4,A16U U27G,0.665
5,A16U U47G,0.692
6,A16U U65A,0.831
7,A16U U65C,0.965
8,A16U U69G,1.16
9,A16U U72A,0.554
10,A16U U79G,1.13
11,G17A A43U,0.237
12,G17A A45C,0.415
13,G17A A51C,0.755
14,G17A A51G,0.782
15,G17A A71G,0.675
16,G17A A71U,0.499
17,G17A A77C,0.0978
18,G17A A77G,0.295
19,G17A A78G,0.262
20,G17A A78U,0.242
21,G17A A83C,0.665
22,G17A A87U,0.708
23,G17A C18A,0.252
24,G17A C18U,0.106

row,Variant,self-cleavage
1,G17A C21G,0.0415
2,G17A C24G,0.0791
3,G17A C30U,0.986
4,G17A C36A,0.138
5,G17A C44A,0.306
6,G17A C44U,0.231
7,G17A C49A,0.727
8,G17A C57G,0.674
9,G17A C58A,0.746
10,G17A C61A,0.594
11,G17A C63A,0.611
12,G17A C63G,0.633
13,G17A C64A,0.645
14,G17A C64U,0.722
15,G17A C66U,0.607
16,G17A C75G,0.0773
17,G17A C85A,0.727
18,G17A C86U,0.885
19,G17A G25U,0.0277
20,G17A G28U,0.122
21,G17A G35C,0.156
22,G17A G38U,0.1
23,G17A G39C,0
24,G17A G40C,0.113

row,Variant,self-cleavage
1,G17A G52C,0.923
2,G17A G54C,0.458
3,G17A G55U,0.762
4,G17A G59A,0.635
5,G17A G59C,0.66
6,G17A G67C,0.659
7,G17A G73U,0.188
8,G17A G80C,0.345
9,G17A G81A,0.151
10,G17A U20C,0.268
11,G17A U20G,0.156
12,G17A U23G,0.427
13,G17A U37C,1.1
14,G17A U37G,0.172
15,G17A U46A,0.308
16,G17A U46G,0.229
17,G17A U47G,0.657
18,G17A U60A,0.787
19,G17A U69A,0.731
20,G17A U72C,0.141
21,G17A U72G,0.378
22,G17A U79G,0.388
23,G17C A45C,0.0519
24,G17C A45G,0.119

row,Variant,self-cleavage
1,G17C A51G,0.317
2,G17C A51U,0.443
3,G17C A56U,0.427
4,G17C A70U,0.277
5,G17C A77C,0.277
6,G17C A83C,0.244
7,G17C A87C,0.354
8,G17C A87U,0.171
9,G17C C18A,0
10,G17C C19U,0.128
11,G17C C21A,0.0519
12,G17C C22U,0.0639
13,G17C C24A,0.0519
14,G17C C26A,0.369
15,G17C C26U,0.359
16,G17C C32U,0
17,G17C C41G,0.0354
18,G17C C49A,0.467
19,G17C C49G,0.107
20,G17C C57G,0.516
21,G17C C58A,0.388
22,G17C C61G,0.519
23,G17C C62U,0.405
24,G17C C64A,0.314

row,Variant,self-cleavage
1,G17C C64U,0.0475
2,G17C C66A,0.262
3,G17C C84G,0.18
4,G17C C84U,0.326
5,G17C C86A,0.365
6,G17C C86G,0.131
7,G17C G25U,0.101
8,G17C G28C,0.125
9,G17C G28U,0.0707
10,G17C G29A,0.0437
11,G17C G29U,0
12,G17C G35A,0.147
13,G17C G35U,0.0773
14,G17C G50A,0.148
15,G17C G50U,0.332
16,G17C G52C,0.19
17,G17C G59C,0.243
18,G17C G67A,0.249
19,G17C G67U,0.358
20,G17C G73A,0.156
21,G17C G73C,0.0875
22,G17C G73U,0.0852
23,G17C G74U,0.0554
24,G17C G80A,0.0252

row,Variant,self-cleavage
1,G17C G80U,0.0588
2,G17C G81A,0.0978
3,G17C G81C,0.0898
4,G17C U20C,0
5,G17C U23C,0.208
6,G17C U27C,0
7,G17C U46G,0.0923
8,G17C U60G,0.356
9,G17C U65A,0.353
10,G17C U65G,0.249
11,G17U A43G,0.237
12,G17U A51G,0.34
13,G17U A56G,0.609
14,G17U A70G,0.674
15,G17U A71G,0.323
16,G17U C22A,0.0831
17,G17U C26G,0.608
18,G17U C26U,0.654
19,G17U C30A,0.831
20,G17U C30G,0.486
21,G17U C33A,0.143
22,G17U C33G,0.0831
23,G17U C36U,0.166
24,G17U C41A,0.104

row,Variant,self-cleavage
1,G17U C41U,0.253
2,G17U C48G,0.482
3,G17U C57A,0.689
4,G17U C58A,0.847
5,G17U C63U,0.47
6,G17U C64G,0.495
7,G17U C84G,0.439
8,G17U C86G,0.583
9,G17U G28A,0.188
10,G17U G29A,0.0314
11,G17U G31C,0.0361
12,G17U G34A,0.13
13,G17U G38C,0.0997
14,G17U G39A,0.128
15,G17U G40U,0.381
16,G17U G50U,0.609
17,G17U G54C,0.536
18,G17U G54U,0.546
19,G17U G55C,0.453
20,G17U G55U,0.415
21,G17U G59A,0.465
22,G17U G74A,0.129
23,G17U G76C,0.751
24,G17U G81A,0.415

row,Variant,self-cleavage
1,G17U G81C,0.197
2,G17U G81U,0.381
3,G17U G82C,0.269
4,G17U G82U,0.361
5,G17U U23G,0.0692
6,G17U U27C,0.308
7,G17U U47A,0.256
8,G17U U60C,0.601
9,G17U U69C,0.869
10,G17U U72G,0
11,G17U U79A,0.755
12,G17U U79C,0.584
13,G17U U79G,0.406
14,C18A A42G,0.102
15,C18A A45C,0.208
16,C18A A51C,0.0755
17,C18A A56G,0.162
18,C18A A70U,0.0898
19,C18A A77C,0
20,C18A A78U,0.128
21,C18A A87U,0.126
22,C18A C19A,0.128
23,C18A C19G,0.145
24,C18A C21A,0.125

row,Variant,self-cleavage
1,C18A C21U,0.089
2,C18A C22A,0.117
3,C18A C26A,0.244
4,C18A C26G,0.119
5,C18A C26U,0.312
6,C18A C32A,0.106
7,C18A C33U,0.0489
8,C18A C36A,0.0361
9,C18A C36G,0
10,C18A C48G,0.102
11,C18A C49A,0.111
12,C18A C49G,0.119
13,C18A C57U,0.086
14,C18A C61A,0.0615
15,C18A C61G,0.172
16,C18A C62A,0.102
17,C18A C66G,0.0639
18,C18A C75G,0.133
19,C18A C84U,0.0997
20,C18A C85G,0.0475
21,C18A C86A,0.106
22,C18A C86U,0.0898
23,C18A G25A,0.133
24,C18A G25C,0.0405

row,Variant,self-cleavage
1,C18A G28C,0.095
2,C18A G29C,0.266
3,C18A G29U,0.821
4,C18A G34U,0.0489
5,C18A G38A,0.113
6,C18A G40C,0.162
7,C18A G52A,0.196
8,C18A G52U,0.237
9,C18A G55C,0.133
10,C18A G55U,0.197
11,C18A G59C,0.0639
12,C18A G67C,0.123
13,C18A G67U,0.117
14,C18A G73A,0.0755
15,C18A U23C,0
16,C18A U27C,0.135
17,C18A U27G,0.115
18,C18A U37A,0.0462
19,C18A U37C,0.0361
20,C18A U37G,0.185
21,C18A U47G,0
22,C18A U69A,0.19
23,C18G A43U,0.189
24,C18G A56C,0.0755

row,Variant,self-cleavage
1,C18G A71G,0
2,C18G A77C,0.178
3,C18G A77G,0.0755
4,C18G A78C,0
5,C18G A78G,0
6,C18G A83U,0.101
7,C18G A87G,0.12
8,C18G A87U,0.154
9,C18G C19G,0
10,C18G C22G,0.0755
11,C18G C26A,0.175
12,C18G C26G,0.0831
13,C18G C32G,0.107
14,C18G C33A,0
15,C18G C41G,0.266
16,C18G C44G,0.0723
17,C18G C57G,0.133
18,C18G C57U,0.237
19,C18G C62G,0
20,C18G C63G,0.199
21,C18G C64G,0.156
22,C18G C64U,0.147
23,C18G C66U,0.166
24,C18G C75A,0

row,Variant,self-cleavage
1,C18G C75U,0.0615
2,C18G C86U,0.0875
3,C18G G25U,0.0386
4,C18G G28U,0.0405
5,C18G G31A,0.0811
6,C18G G38C,0
7,C18G G38U,0.0386
8,C18G G39A,0
9,C18G G50A,0.138
10,C18G G50U,0.196
11,C18G G52C,0.0554
12,C18G G54A,0.125
13,C18G G54C,0.0475
14,C18G G55A,0.145
15,C18G G59C,0.26
16,C18G G67A,0.101
17,C18G G73U,0.119
18,C18G G80C,0.0707
19,C18G G82U,0.219
20,C18G U23G,0
21,C18G U27A,0.0665
22,C18G U46C,0

# Reference: the RNAGym collection of RNA variant scans (doi:10.7554/elife.80360)
